Experiment: soluble on expression in E. coli; label from the status in PepcDB or PDB records

Row | Sequence | soluble on expression in E. coli
1 | MQRYFVEEKYVNETSIRIVGDDVHHIARVMRMSAGDHIYCCVNGKTAVCSIDEITSEFINTAIVEWVEASSELPVFVTIASGLPKGDKLELIFQKGTELGAAAFLPFQASRSIVKWDAKKADKKVERLRKIVKEAAEQSHRSEIPEVHAPASFKQLLSMSGEYDTCLVAYEEEAKQGEKSNFAKALTTMKPGQKLLIVFGPEGGLAEEEITALREHKFVPCSLGPKNFKNRNGAVIRVKCCFVSF | not soluble
2 | GMATNSSTEQSLTKKVWNLATTLAGQGIGFTDYITQLTYLLFLKMDAENVEMFGEESAIPTGYQWADLIAFDGLDLVKQYEETLKLLSELDNLIGTIYTKAQNKIDKPVYLKKVITMIDEEQWLIMDGDVKGAIYESILEKNGQDKKSGAGQYFTPRPLIQAMVDCINPQMGETVCDPACGTGGFLLTAYDYMKGQSASKEKRDFLRDKALHGVDNTPLVVTLASMNLYLHGIGTDRSPIVCEDSLEKEPSTLVDVILANPPFGTRPAGSVDINRPDFYVETKNNQLNFLQHMMLMLKTGGRAAVVLPDNVLFEAGAGETIRKRLLQDFNLHTILRLPTGIFYAQGVKANVLFFSKGQPTKEIWFYDYRTDIKHTLATNKLERHHLDDFVSCYNNRVEIYDAENNPQGRWRKYPVDEIIARDKTSLDITWIKPGGEVDDRSLAEL | soluble
3 | MAHHHHHHMIKLGNFAWQLLTRADGSNLGGVLRGSRKVCSLSVARLSKHPYKPKTKEVIHPHVTPPEFLSPSDCFEAKTDELQQYLPSNYYRTKWVESLRAGEHLGSDYPWNLLPHWKFWKKRKYNVVYGEVPWFVSKVKGVSYYQRLNVWMVQWVEEGVHRIRRFRCAFGVLQAKLAAEQFRRNLEESGRVDNRKSERQLRMDYIQKRDERLLRKKRYSKVSKGQF | not soluble
4 | MAHHHHHHMNPHPVEPRDQIAELLVESPLFSFNCAHFIAFKGFRETLHGHNYNVSLRLRGNIQGDGYVIDFSILKEKVRKVCKQLDHHFILPMYSDVLNIQEVNDNFKITCEDNSEYSFPKRDCVQIPIKHSSTEEIGLYILNQLIEEIDLPFLKTRSVNYMEVTVSESPSQKATVHRNI | soluble
5 | MKKPTSAPRSKAFGKQRRKTREELNQEARDRKRLKKHRGHAPGSRAAGGNSASGGGNQNQQKDPRIGSKTPVPLGVTEKVTQQHKPKSEKPMLSPQAELDLLETDERLDALLERLEAGETLSAEDQAWVDAKLDRIDELMQKLGLSYDDDEEDDEEDEKQEDMMRLLRGGN | not soluble
6 | MIKKLDVVAAIIECDGKILLAQRPAHADQAGLWEFAGGKVEPGETQPQALIRELREELGIDATPGVYIASHQRDVSGRRIHLHAWHVPAFNGLIRALEHQALAWCTPEEALEYPLAPADIPLLQAFIALRDARLTDSC | not soluble
7 | MNTNLAELPVRIFKILSEELQKDNIWIKIVEFDEDPIYYMKSTEIESFLKREKCCEQVLRKWGNRGQTVGSLLARLQFLSRTYEDEFDSIQFHLRRKFKPLRWIPDPEQQVTKEIDEGNIKLECKAQGFPCPEIKWFTKGSKEPVHIGRVYTILRCKCSNEHQYKCVAKNEIREGSPYSEIYRKAGKQFSSVIESEYVDVTSCIRDDELCESCKKYEMGRLSQILAEDQEKPENKVSPVRPNLDITLRAADKVALIMSNCSYVHLPELRTPHCDAQTLADALQKMNYKTVTLADLTLDEMRYFIRVYQKLIGNGVYAVFYFVGHGFEVNGQCYLLGVDAPADAHQPQHSMSMDWLLSIFRHKTPDLNLLLLDVCRKFVPYDAISAFVEYSEQFKKFHRAHRNMVYGYSTSGGVGAYEVKGEVNGVFMKYLKNHVQLEISVIDMLNKVLLDIGDDQKVCDLQVPEIRSTLTHPRSLADPLIFDGHTASFDNHTIHWRLMHELPTPATIRFETQQLVATIWFQFCGNFTNKVYVFASISDFRPCQEDTDMGENEELSENALNHRAFVEFPEELHCSDVREYNDDEEGVSMLWILSGLQKIKKEAGLTCEVHLRHVDDPEKTIEMKNVDIGHILITRIKCLQ | not soluble
8 | MGSDKIHHHHHHMRTYTKEIQAIIDNVEKVIIGKENVITQSLAALLAGGHVLLEDVPGVGKTMLVRAFSRSIGLTFKRVQFTPDLLPSDLTGVSMYNQKTSQFEYRPGPLMGNIVLADEINRTSPKTQSALLEGMAEANVTVDGEIHTLPNPFFVMATQNPIEHEGTYPLPEAQLDRFLIKVKMGYPDFQQEMKLLTRFERDEPIETLESVITRDELLRMKEDVKAVHVSQPVKKYIVHLVQATRTHASLYLGASPRSSIALMKVAQAWAYMEGRSFVLPDDVKELLTPVLSHRLILTADARYHGQTAERILEQVKKEVAVPIQQDVESL | not soluble
9 | MGSDKIHHHHHHMKKIRLGIYIEDSEYGDRLTCYFMNHYKVQLEIHMYTMKEQLEHLEGEIDIMLSSELDQWNNKYIPLIQIVEETPIESEEGIYFVEKYQEVNRIVEEILKHVGGEVRDLKSEGSLIGQTRLISVYSLADNQYQMPFAMTLSSILSENEKVLLMDFQENSGLSRMLEQSVEHNLDELLVMAESGRYSTNRINSCIGRKHKLDYVYPIENTECLCEINTVICNNLLQMLGKEMHYDCIVLNMGTRFKGFFDILDRCSDIYLVQKKGGISQWREYEFTEELMERGLSNVVERIKLIEPPVITTPVSTCDKLVELWKWNEFGDVIRNMTRGISCAG | not soluble
10 | MNTLYTLFATCPRGLETVLSQELESLGCTDVQVFDGGVSCRGGLEQVYAANLHSRTASRILLRLTKGTYRNERDIYKLAKNINWFNWFTLQQTFKVKVEAKRANVKSIQFVGLTVKDAVCDAFRDIYDARPSVDKAAPDVRIHAFLNERNVEIFIDTSGEALFKRGYRLDTGEAPLRENLAAGLLLSAGYDGTQPFQDPFCGSGTIAIEAAWIAARRAPGMMRRFGFEKLQNFDKTLWSDLRRRAEAQTRPVRAPIAGSDNDRRIVQTALDNARRAGVDDIVSFSVADAQSVRPNGENGIMVSNPPYGVRLEEVRALQALYPQLGTWLKKHYAGWLAAMFTGDREMPKFMCLSPKRKIPLYNGNIDCRLFLIDMVEGSNR | not soluble
11 | MEVVEAAAAQLETLKFNGTDFGVGEGPAAPSPGSAPVPGTQPPLQSFEGSPDAGQTVEVKPAGEQPLQPVLNAVAAGTPAPQPQPPAESPACGDCVTSPGAAEPARAPDSLETSDSDSDSDSETDSDSSSSSSSSSSSSSSSSSSCISLPPVLSDGDDDLQVEKENKNFPLKTKDELLLNELPSVEELTIILPEDIELKPLGMVSSIIEQLVIIESMTNLPPVNEETVIFKSDRQAAGKIFEIFGPVAHPFYVLRFNSSDHIESKGIKIKETMYFAPSMKDFTQYIFTEKLKQDKGSDASWKNDQEPPPEALDFSDDEKEKEAKQRKKSQIQGRKKLKSEFNEPGEDFTEVHQNWNAHSSASEHAKGYRNREFTRGFSRARYPRSCHGRPPPQHFYNSEHMVSQETSGFPSQRQNNPIMPQYPFPLPVFDMHNFPLRPPPPPPPPPVNMGWATPNMAAHPLLNLPYSLPPPPPPPPLPPPPSSGDSNSHFGPYY | soluble
12 | MIALFNKLLDWFKALFWKEEMELTLVGLQYSGKTTFVNVIASGQFNEDMIPTVGFNMRKITKGNVTIKLWDIGGQPRFRSMWERYCRGVSAIVYMVDAADQEKIEASKNELHNLLDKPQLQGIPVLVLGNKRDLPGALDEKELIEKMNLSAIQDREICCYSISCKEKDNIDITLQWLIQHSKSRRS | soluble
13 | MSIEEEDTNKITCTQDFLHQYFVTERVSIQFGLNNKTVKRINKDEFDKAVNCIMSWTNYPKPGLKRTASTYLLSNSFKKSATVSLPFILGDPVCMPKRVESNNNDTCLLYSDTLYDDPLIQRNDQAGDEIEDEFSFTLLRSEVNEIRPISSSSTAQILQSDYSALMYERQASNGSIFQFSSP | not soluble
14 | MPKKAGATSKGKNQTKEPETAPPAAGPVATDPKGFVTIAIHAKPGSRQNAVTDLSTEAVGVAIAAPPSEGEANAELCRYLSKVLDLRKSDVVLDKGGKSREKVVKLLASTTPEEVLEKLKTEAEKK | soluble
15 | MGFLKILRKQRAREREMRILILGLDNAGKTTLMKKFLDEPTDTIEPTLGFDIKTVHFKDFQLNLWDVGGQKSLRSYWKNYFESTDALIWVVDSSDRERLLQCSEELKKLLGEERLAGASLLVLANKSDLPGAIDVNSIAQVLDLHSIKSHHWKIFSCCALSGDRLVQAMTWLCDDVGSRLFILD | not soluble
16 | MSLAVKILSVDDELDLEVLLTQYFRRQIRKGEYEFAFAHNGLEALQKLLETPDFDIILSDINMPEMDGLTLLAKVNELKNPAMKCIMVSAYGDMDNIRSAMNKGAFDFATKPIDLDDLSRTIEKAIEQVRYIRESQQEHNQLESIKNDLAIAGEIQQTILPRSFPPFPELTEVVNIYASMTPAKDVGGDFYDFFQIDDERIGLVIADVSGKGVPASLFMAVSRTLLRATALRGVSSAECLTYANKLLCKESLDSMFVTVFYGIYHYKTGMMDYTNAGHNPPYLLRGGRTVECLPVASNFVVGVFDDIEFESNTLTFGIGDTLLLYTDGVTEAFNDKREQFSESNLQDILASMHESSSAKEVVTSVLQSVKTFSGDYPQSDDITLLSLQRIKEGHHHHHH | soluble
17 | MGSDKIHHHHHHAGEKLVESAAAPRIINIINFIRQTDYRVENADSLLYETVCEQVKLVNKYDLPATFLLQYDALINPLYQDLLKSKLNAHSEIGAWWELTQPQIEAAGIKWRGEHSWVSHANIAFSTGYTKEERERLVDVYMAKFKEIFGTYPKSVGSWFIDAHTLGYMYDKYKIVASCNCKDQVGTDGYTLWGGYWNQAYYPSRVNAYMPAQTEEGQIPVPIFRMLGSDPIYQYDDGLGQERQGVISLEPVYEKAGMDRRWVDYFLESIVNQPCLAFNYAQAGQENSFTWSNMSKGLEMQIPILDSLRKENKIRVETLGESGAWFKECFKVTPPTAVTTLTDVRGEGNKTVWFNSRYYRANLLWERGTFRFRDIHLFDEGYKSAYMEKPGDGNQFLFYTLPVVDGFMWSEGLDRAGLRIVRLDKDGDKEELTLDHPVVTEIGKDTLVVSAEDSKGHPFKITFYETRFEVAALSKEADLSWALELKVAAGKELPFTVIEDKAVNASFDGFNYVITCKKGHIRKPESGSDYVFRILPSDKEIVINCTNTRLNCTHEK | not soluble
18 | MAEQQPSKEEKKEDKKDEKEEELPAPSVQQSIRQLPKIQITDDDKGEQLPECTEGEWDASDEPFSAELLNVKNAPNKVSVFSGPYRSKETIEKIKKFRAAMPPVIPIIDERPDKLAQMMSRIFSEIIDGRDLSKIKVFFFIK | not soluble
19 | MSKEYHIRELIMRLARLDVSESWAEDLNPAQRAVLEYLSRANKFSRSPSHVAAFLGTTRGTISQTFKALLQKNYVTEKRSQSDKRVISFDLTQKGRALLARPRLLISGLESLDSSEQNALLSTLQSTLNSLLEQNKGQPFGLCKECRHFTSSNGGGYCNLLSEKLAPPETEQICHEQDPL | not soluble
20 | MSTLLAILFLLPFYTFSLNKKPEEVLKGLYPSAEIEVEDIILTEEQVKEVEKLSGTKLNTRFVTFYIVKKDGKVLAYGYVDIHRVRTKPEAVLYVISPKGKIELIEVLAFHEPLEYLPPKNWLKLFEGKDINAPLRVKKDIPNVTGATLTARAITKNAKKVLALWQVLFGGKE | not soluble
21 | MARSRRDKNVSLTKVKKKTKDTKNNLVNEVRASVDQYKNLFIFTIANMRSTRFIAIRQKYKENSRFFFGKNNVISIALGKQKSDEYANQLHKASAILKGQCGLMFTNMSKKEVEAEFSEASEEDYARVGDVATETVVLPEGPISQFAFSMEPQLRKLGLPTKLDKGVITLYQQFEVCKEGEPLTVEQAKILKHFEVKMSQFRLIFKAHWNKKDGFKELDA | not soluble
